{
  "source": "patent US20260217760A1",
  "about": "(Chugai, published 2026)",
  "binders": {"B1": {"name": "homomeric antibody NTA4L-G3 (antibody, human IgG1, kappa, L234A L235A, N297A)", "heavy": "not shown", "light": "DVVMTQSPLSLPVTPGEPASISCRSSQSLVHSNRNTYLHWYLQKPGQSPQLLIYKVSNRFSGVPDRFSGSGSGTDFTLKISRVEAEDVGVYYCSQNTHVPPTFGQGTKLEIKRTVAAPSVFIFPPSDEQLKSGTASVVCLLNNFYPREAKVQWKVDNALQSGNSQESVTEQDSKDSTYSLSSTLTLSKADYEKHKVYACEVTHQGLSSPVTKSFNRGEC", "notes": "Homomeric by-product; also called NTL4L-G3"}, "B2": {"name": "J142-z72/L180-k (antibody, human IgG4 S228P, kappa)", "heavy": "QVQLVQSGSELKKPGASVKVSCKASGYTFTDNNMDWVRQAPGQGLEWMGDINTRSGGSIYNEEFQDRVTMTIDKSTGTAYMELSSLRSEDTAVYYCARRRSYGYYHDEWGEGTLVTVSSASTKGPSVFPLAPCSRSTSESTAALGCLVKDYFPEPVTVSWNSGALTSGVHTFPAVLQSSGLYSLSSVVTVPSSSLGTKTYTCNVDHKPSNTKVDKRVESKYGPPCPPCPAPEFLGGPSVFLFPPKPKDTLMISRTPEVTCVVVDVSQEDPEVQFNWYVDGVEVHNAKTKPREEQFNSTYRVVSVLTVLHQDWLNGKEYKCKVSNKGLPSSIEKTISKAKGQPREPQVYTLPPSQEEMTKNQVSLTCLVKGFYPSDIAVEWESNGQPENNYKTTPPVLDSDGSFFLYSRLTVDKSRWQEGNVFSCSVMHEALHNRFTQKSLSLSP", "light": "DIQMTQSPSSLSASVGDRVTITCKASRNIERNLAWYQQKPGQAPELLIYSASRKESGVPDRFSGSRYGTDFTLTISSLQPEDLATYYCQQYYSPPLTFGGGTKVEIKRTVAAPSVFIFPPSDEQLKSGTASVVCLLNNFYPREAKVQWKVDNALQSGNSQESVTEQDSKDSTYSLSSTLTLSKADYEKHKVYACEVTHQGLSSPVTKSFNRGEC", "notes": "Homomeric by-product in culture medium of Q153-G4d/J142-z72/L180-k; also called homomeric antibody J142-z72; homomeric antibody against FX"}, "B3": {"name": "J300-z107/L210-k (antibody, human IgG4 S228P, kappa)", "heavy": "QVQLVQSGSELKKPGASVKVSCKASGYTFTDNNMDWVRQAPGQGLEWMGDINTRSGGSIYNEEFQDRVIMTVDKSTDTAYMELSSLRSEDTAVYHCARRKSYGYYLDEWGEGTLVTVSSASTKGPSVFPLAPCSRSTSESTAALGCLVKDYFPEPVTVSWNSGALTSGVHTFPAVLQSSGLYSLSSVVTVPSSSLGTQTYTCNVDHKPSNTKVDKRVESKYGPPCPPCPAPEFLGGPSVFLFPPKPKDTLMISRTPEVTCVVVDVSQEDPEVQFNWYVDGVEVHNAKTKPREEQYNSTYRVVSVLTVLHQDWLNGKEYKCKVSNKGLPSSIEKTISKAKGQPREPQVYTLPPSQEEMTKNQVSLTCLVKGFYPSDIAVEWESNGQPENNYKTTPPVLDSDGSFFLYSKLTVDKSRWQEGNVFSCSVMHEALHNRYTQESLSLSP", "light": "B2 light with L83I, Y92S", "notes": "also called homomeric antibody J300-z107; homomeric antibody against FX"}, "B4": {"name": "J142-z73/L180-k (antibody, human IgG4 S228P, kappa)", "heavy": "B2 heavy with K438E", "light": "B2 light", "notes": "Homomeric by-product in culture medium of Q153-z7/J142-z73/L180-k; also called homomeric antibody J142-z73; homomeric antibody against FX"}, "B5": {"name": "homomeric antibody having the H chain of the anti-GPC3 antibody (from no6) (antibody)", "heavy": "DVVMTQSPLSLPVTPGEPASISCRSSQSLVHSNRNTYLHWYLEKPGQSPQLLIYKVSNRFSGVPDRFSGSGSGTDFTLKISRVEAEDVGVYYCSQNTHVPPTFGQGTKLEIKSSASTKGPSVFPLAPSSKSTSGGTAALGCLVKDYFPEPVTVSWNSGALTSGVHTFPAVLQSSGLYSLSSVVTVPSSSLGTQTYICNVNHKPSNTKVDKKVEPKSCDKTHTCPPCPAPEAAGGPSVFLFPPKPKDTLMISRTPEVTCVVVDVSHEDPEVKFNWYVDGVEVHNAKTKPREEQYASTYRVVSVLTVLHQDWLNGKEYKCKVSNKALPAPIEKTISKAKGQPREPQVYTLPPSRKELTKNQVSLTCLVKGFYPSDIAVEWESNGQPENNYKTTPPVLDSDGSFFLYSKLTVDKSRWQQGNVFSCSVMHEALHNRYTQKSLSLSP", "light": "QVQLVQSGAEVKKPGASVKVSCKASGYTFTDYEMHWIRKPPGKGLEWIGAINPKTGDTAYSQKFKGRVTLTADKSTSTAYMELSSLTSEDTAVYYCTRFYSYTYWGRGTLVTVSSASVAAPSVFIFPPSDEQLKSGTASVVCLLNNFYPREAKVQWKVDNALQSGNSQESVTEQDSKDSTYSLSSTLTLSKADYEKHKVYACEVTHQGLSSPVTKSFNRGEC", "notes": "also called no6-Gh-H homomer"}},
  "key": {"protein A [1]": {"target": "T1, protein A (UniProt P38507 37-327)", "T1 construct": "Immobilised on resin; also called rProtein A Sepharose Fast Flow column (GE Healthcare); HiTrap protein A HP column (GE Healthcare)", "assay": "HiTrap protein A HP column, pH gradient elution; size exclusion analysis", "text": "The CM samples were filtered through a filter with a pore size of 0.22 μm, and loaded onto a HiTrap protein A HP column (GE Healthcare) equilibrated with D-PBS. […] Eluted fractions were collected and analyzed by size exclusion chromatography analysis to identify their components."}, "protein A [2]": {"target": "T1, protein A", "assay": "rProtein A Sepharose Fast Flow column, stepwise pH elution; fractions analysed by cation exchange chromatography", "experimental": "The CM samples were filtered through a filter with a pore size of 0.22 μm, and loaded onto an rProtein A Sepharose Fast Flow column (GE Healthcare) equilibrated with D-PBS. The volume of CM to be loaded onto the column was adjusted to 20 mg antibody/ml resin. Fractions eluted under each condition were collected, and the respective eluted fractions were analyzed by cation exchange chromatography to identify their components. To prepare controls, each CM was loaded onto rProtein G Sepharose Fast Flow resin (GE Healthcare). Samples purified by batchwise elution were used as controls. Since protein G binds to the Fab domain of an antibody, all antibody species (a bispecific antibody of interest in which two types of H chains are associated in a heteromeric manner (heteromeric antibody) and as an impurity monospecific homomeric antibodies in which single-type H chains are homomerically associated) in CM can be purified by using protein G, regardless of their protein A-binding affinity."}, "protein A [3]": {"target": "T1, protein A", "assay": "rProtein A Sepharose Fast Flow column, elution at pH 3.6; cation exchange analysis", "experimental": "(§1) The CM samples were filtered through a filter with a pore size of 0.22 μm, and loaded onto an rProtein A Sepharose Fast Flow column (GE Healthcare) equilibrated with D-PBS. […] The volume of CM to be loaded onto the column was adjusted to 20 mg antibody/ml resin. Respective fractions eluted under each condition were collected and analyzed by cation exchange chromatography to identify their components. […] Samples purified by batchwise elution were used as controls."}, "protein A [4]": {"target": "T1, protein A", "assay": "rProtein A Sepharose Fast Flow column, elution at pH 3.6 and 2.7; cation exchange analysis", "experimental": "as §1"}, "protein A [5]": {"target": "T1, protein A", "assay": "HiTrap protein A HP column, pH gradient elution", "text": "CM samples were filtered through a filter with a pore size of 0.22 μm and loaded onto a HiTrap protein A HP column (GE Healthcare) equilibrated with D-PBS. The column was sequentially subjected to washes 1 and 2 and elution with a pH gradient using elution A and B as shown in Table 18."}},
  "note": "Changes are numbered by the printed parent chain.",
  "data": [
    {"binder": "B1", "values": [
      {"measurement": "binding result", "setting": "protein A [1]", "result": "no binding"}
    ]},
    {"binder": "B2", "values": [
      {"measurement": "binding result", "setting": "protein A [2]", "result": "no binding"}
    ]},
    {"binder": "B3", "values": [
      {"measurement": "binding result", "setting": "protein A [3]", "result": "no binding"}
    ]},
    {"binder": "B4", "values": [
      {"measurement": "binding result", "setting": "protein A [4]", "result": "no binding"}
    ]},
    {"binder": "B5", "values": [
      {"measurement": "binding result", "setting": "protein A [5]", "result": "no binding"}
    ]}
  ]
}
